The values that follow come from patent US20080009021A1.

The target of the assay is E3 His-ROC1/Cul1 complex (UniProt Q13616). As to the kind of experiment: cell-based or functional assay.

Substance Flag-ubiquitin moiety came in with an amount of E3 giving maximum attachment of ubiquitin moiety to E3 (luminescence, nickel plate) (ng per 100 µl) of 200 to 300.
